Results as given in paper PMC7263513 (bioRxiv, 2020).

B1: C151 (antibody, V domains shown)
VH: EVQLVESGGGLVKPGGSLRLSCAASGFTFSSYNMNWVRQAPGKGLEWVSCISSSSSYIYYADSVKGRFTISRDNAKNSLYLQMNSLRAEDTAVYYCARERGYDGGKTPPFLGGQGTLVTVSS
VL: NFMLTQPHSVSESPGKTVTISCTGSSGSIASNYVQWYQQRPGSAPTTVIYEDNQRPSGVPDRFSGSIDSSSNSASLTISGLKTEDEADYYCQSYDSSNYWVFGGGTKLTVL
B2: C134 (antibody, V domains shown)
VH: EVQLLESGGGLVQPGGSLRLSCAASGFTFSNYAMSWVRQAPGKGLEWVSAISGSDGSTYYAGSVKGRFTISRDNSKNTLYLQMNSLRAEDTAVYYCAKDPLITGPTYQYFHYWGQGTLVTVSS
VL: SYELTQPPSVSVAPGKTARITCGGNNIGSKSVHWYQQKPGQAPVLVIYYDSDRPSGIPERFSGSNSGNTATLTISRVEAGDEAEYHCQVWDSSSDRPGVVFGGGTKLTVL
B3: C143 (antibody, V domains shown)
VH: EVQLVESGGGLVQPGGSLRLSCAASGFSVSTKYMTWVRQAPGKGLEWVSVLYSGGSDYYADSVKGRFTISRDNSKNALYLQMNSLRVEDTGVYYCARDSSEVRDHPGHPGRSVGAFDIWGQGTMVTVSS
VL: QSALTQPASVSGSPGQSITISCTGTSNDVGSYTLVSWYQQYPGKAPKLLIFEGTKRSSGISNRFSGSKSGNTASLTISGLQGEDEADYYCCSYAGASTFVFGGGTKLTVL
B4: C164 (antibody, V domains shown)
VH: EVQLVESGGGLVQPGGSLRLSCAASGFSVSTKYMTWVRQAPGKGLEWVSVLYSGGSDYYADSVKGRFTISRDNSKNALYLQMNSLRVEDTGVYYCARDSSEVRDHPGHPGRSVGAFDIWGQGTMVTVSS
VL: QSALTQPASVSGSPGQSITISCTGTSNDVGSYTLVSWYQQYPGKAPKLLIFEVTKRSSGISNRFSGSKSGNTASLTISGLQGEDEADYYCCSYAGASTFVFGGGTKLTVL
B5: C133 (antibody, V domains shown)
VH: QVQLVESGGGVVQPGRSLRLSCAASGFTFSSYAMHWVRQAPGKGLEWVAVILYDGSNKYYADSVKGRFTISRDNSKNTLYLQMNSLRAEDTAVYYCARDSDVDTSMVTWFDYWGQGTLVTVSS
VL: not shown
B6: C132 (antibody, V domains shown)
VH: QVQLQESGPGLVKPSGTLSLTCAVSGGSISSNNWWSCVRQPPGKGLEWIGEIYHSGSTNYNPSLKSRVTISVDKSKNQFSLKLSSVTAADTAVYYCARGGDTAMGPEYFDYWGQGTLVTVSS
VL: QSALTQPASVSGSPGQSITISCTGTSSDVGGYNYVSWYQQHPGKAPKLMIYDVSNRPSGVSNRFSGSKSGNTASLTISGLQAEDEADYYCSSYTSSSTLLFGGGTKLTVL
B7: C153 (antibody, V domains shown)
VH: EVQLVESGGGLIQPGGSLRLSCAASGFTVSSNYMSWVRQAPGKGLEWVSVIYSGYSTYYVDSVKGRFTISRDNSKNTLYLQMNSLRAEDTAVYYCARVGGAHSGYDGSFDYWGQGTLVTVSS
VL: QSALTQPASVSGSPGQSITISCTGTSSDVGSYNLVSWYQQHPGKAPKLMIYEGSKRPSGVSNRFSGSKSGNTASLTISGLQAEDEADYYCCSYAGSSTWVFGGGTKLTVL
B8: C145 (antibody, V domains shown)
VH: EVQLVESGGGLIQPGGSLRLSCAASGFSVSSNYMSWVRQAPGKGLEWVSVIYSGGSTYYADSVKGRFTISRDNSKNTLYLQMNSLRAEDTAVYYCAREGEVEGYYDFWSGYSRDRYYFDYWGQGTLVTVSS
VL: QSALTQPASVSGSPGQSITISCTGTSSDVGGYNYVSWYQQHPGKAPKLMIYDVSNRPSGVSNRFSGSKSGNTASLTISGLQAEDEADYYCSSYTSSTTRVFGTGTRVTVL
B9: C150 (antibody, V domains shown)
VH: EVQLVESGGGLVQPGGSLRLSCVASGFTFSSYWMHWVRQVPGKGPVWVSHINSEGSSTNYADSVRGRFTISRDNAKDTLYLQMNNLRAEDTAVYYCARPTAVAAAGNYFYYYGMDVWGQGTTVTVSS
VL: QSALTQPASVSGSPGQSITISCTGTSSDVGYYNFVSWYQQHPGKAPKLMIYEVSNRPSGVSNRFSGSKSGNTASLIISGLQAEDEADYYCSSYRSSSTLVFGGGTKLTVL
B10: C207 (antibody, V domains shown)
VH: not shown
VL: EIVLTQSPATLSLSPGERATLSCRASQSVSSYLAWYQQKPGQAPRLLIYDASNRATGIPARFSGSGSGTDFTLTISSLEPEDFAVYYCQQRSNWPRGFGQGTKVEIK
B11: C138 (antibody, V domains shown)
VH: EVQLVESGGGLVQPGGSLRLSCAASGFTFSTYWMSWVRQPPGKGLEWVANIKQDGSEKYYVDSVKGRFTISRDNAKNSLYLQMNSLRADDTAVYYCAGGTWLRSSFDYWGQGTLVTVSS
VL: NFMLTQPHSVSESPGKTVTISCTGSSGSIASNYVQWYQQRPGSAPTTVIYEDNQRPSGVPDRFSGSIDSSSNSASLTISGLKTEDEADYYCQSYDSSNWVFGGGTKLTVL
B12: C141 (antibody, V domains shown)
VH: not shown
VL: NFMLTQPHSVSESPGKTVTISCTGSSGSIASNYVQWYQQRPGSAPTTVIYEDNQRPSGVPDRFSGSIDSSSNSASLTISGLKTEDEADYYCQSYDSSNWVFGGGTKLTVL
B13: C148 (antibody, V domains shown)
VH: EVQLVESGGGLVQPGGSQRLSCAASGFTVSSNYMSWIRQAPGKGLEWVSVIYSGGSAYYVDSVKGRFTISRDNSKNTLYLQMNSLRPEDTAVYYCARIANYMDVWGKGTTVTVSS
VL: EIVMTQSPATLSVSPGERATLSCRASQSVSSHLAWYQQKPGQAPRLLIYGASTRATGIPTRFSGSGSGTEFTLTISSLQSEDFAVYYCQQYNNWPPLTFGGGTKVEIK
B14: C154 (antibody, V domains shown)
VH: QVQLVESGGGVVQPGRSLRLSCAASGFTFSRYGMHWVRQAPGKGLEWVAVMSYDGSSKYYADSVKGRFTISRDNSKNTLCLQMNSLRAEDTAVYYCAKQAGPYCSGGSCYSAPFDYWGQGTLVTVSS
VL: DIQMTQSPSSLSASVGDRVTITCQASQGISNYLNWYQQKPGKAPKLLIYDASNLETGVPSRFSGSGSGTDFTFTISSLQPEDIATYYCQQYDNLPITFGQGTRLEIK
B15: C202 (antibody, V domains shown)
VH: EVQLVESGGGLVQPGGSLRLSCAASGFTVSSNYMSWVRQAPGKGLEWVSLIYSGGSTYYADSVKGRFTISRDNSKNTLYLQMNSLRAEDTAVYYCARDTLGRGGDYWGQGTLVTVSS
VL: DIQLTQSPSSLSASVGDRVTITCQASQDISNYLNWYQQKPGKAPKLLIYDASNLETGVPSRFSGSGSGTDFTFTISSLQPEDIATYYCQQYDNLPRSFGQGTKLEIK
B16: C201 (antibody, V domains shown)
VH: EVQLVESGGGLVQPGRSLRLSCAASGFTFDDYAMHWVRQAPGKGLEWVSGISWNSGSIGYADSVKGRFTISRDNAKNSLYLQMNSLRAEDTALYYCVKGVEYSSSSNFDYWGQGTLVTVSS
VL: IRMTQSPSSVSASVGDRVTITCRASQGISSWLAWYQQKPGKAPKLLIYVESSLQSGVPSRFSGSGSGTDFTLTISSLQPEDFATYYCQQANSFPLTFGGGTKVEIK
B17: C204 (antibody, V domains shown)
VH: EVQLLESGGGLEQPGGSLRLSCAASGFTFSTYAMSWVRQAPGKGLEWVSAISGSGAGTFYADSVKGRFTISRDNSKNTLYLQMNSLRAEDTAVYYCARESDCGSTSCYQVGWFDPWGQGTLVTVSS
VL: not shown
B18: C139 (antibody, V domains shown)
VH: EVQLVESGGGVVQPGRSLRLSCAASGFTFSSYAMHWVRQAPGKGLEWVAVISYDGSNKYSADSVKGRFTISRDNSKNTLYLQMNSLRAEDTAVYYCAKGGAYSYYYYMDVWGKGTTVTVSS
VL: not shown
B19: C155 (antibody, V domains shown)
VH: EVQLVESGGGLIQPGGSLRLSCAASGFIVSSNYMSWVRQAPGKGLEWVSVIYSGGSTFYADSVKGRFTISRDNSKNTLYLQMNSLRAEDTAVYYCARDFGEFYFDYWGQGTLVTVSS
VL: EIVMTQSPATLSVSPGERATLSCRASQSVSSNLAWYQQKPGQAPRLLIYGASTRATAIPARFSGSGSGTEFTLTISSLQSEDFAVYYCQQYNNWPRTFGQGTKVEIK
B20: C156 (antibody, V domains shown)
VH: QVQLVESGGGVVQPGRSLRLSCAASGFTFSNYGMHWVRQAPGKGLEWVAVISYDGNNKYYADSVKGRFTISRDNSKNTLYLQMNSLRAEDTAVYYCAKDPFPLAVAGTGYFDYWGQGTLVTVSS
VL: SYELTQPPSVSVAPGQTARISCGGNNIGSKNVHWYQQKPGQAPVLVVYDDSDRPSGIPERFSGSNSGNTATLTISRVEAGDEADYYCQVWDSSSDPWVFGGGTKLTVL
B21: C140 (antibody, V domains shown)
VH: EVQLVESGGGLVQPGGSLRLSCAASGVTVSSNYMSWVRQAPGKGLEWVSLIYSGGSTFYADSVKGRFTISRDNSENTLYLQMNTLRAEDTAVYYCARDLYYYGMDVWGQGTTVTVSS
VL: DIQLTQSPSFLSASVGDRVTITCRASQGISSYLAWYQQKPGKAPKLLIYAASTLQSGVPSRFSGSGSGTEFTLTISSLQPEDFATYYCQQLNSYSYTFGQGTKLEIK
B22: C165 (antibody, V domains shown)
VH: QVQLVQSGAEVKKPGSSVKVSCKASGGTFSSYAINWVRQAPGQGLEWMGRIIPIVGIANYAQKFQGRVTITADKSSSTAYMELSSLRSEDTAVYYCARDLLDPQLDDAFDIWGQGTMVTVSS
VL: not shown

Each binder was assayed against SARS-CoV-2 receptor binding domain (RBD) (Severe acute respiratory syndrome …, UniProt P0DTC2) (assay: cell-based or functional assay).
In the case of B1, the “IC50 of neutralisation of SARS-CoV-2 pseudovirus (293T_(ACE2) cells)” value (“IC50” for short) is reported as 31.8 ng/mL. In the case of B2, the “IC50” value is reported as greater than 1000 ng/mL. In the case of B3, the “IC50” value is reported as greater than 1000 ng/mL. B4 was tested, and the “IC50” value was 239 ng/mL. In the case of B5, the “IC50” value is reported as greater than 1000 ng/mL. With B6 the “IC50” value was 709 ng/mL. B7 was tested, and the “IC50” value was 70.7 ng/mL. For B8, the “IC50” value was 3.04 ng/mL. B9 was tested, and the “IC50” value was greater than 1000 ng/mL. In the case of B10, the “IC50” value is reported as 159 ng/mL. B11 was tested, and the “IC50” value was greater than 1000 ng/mL. For B12, the “IC50” value was greater than 1000 ng/mL. B13 was tested, and the “IC50” value was greater than 1000 ng/mL. B14 was tested, and the “IC50” value was 436 ng/mL. B15 was tested, and the “IC50” value was greater than 1000 ng/mL. In the case of B16, the “IC50” value is reported as greater than 1000 ng/mL. In the case of B17, the “IC50” value is reported as greater than 1000 ng/mL. For B18, the “IC50” value was greater than 1000 ng/mL. For B19, the “IC50” value was 11 ng/mL. In the case of B20, the “IC50” value is reported as greater than 1000 ng/mL. For B21, the “IC50” value was 23.9 ng/mL. For B22, the “IC50” value was 40.8 ng/mL.
